Measured values reported in patent US20170119830A1 (REGENTS OF THE UNIVERSITY OF MINNESOTA, published 2017).

Assays:
mesothelin (MSLN) = mesothelin (MSLN) (UniProt Q13421); assay: 4 C cell binding assay on Panc-1 (MSLN strongly-positive) cells, E4 qPCR
CD133 (Prominin-1) [1] = target: T1, CD133 (Prominin-1) (UniProt O43490 20-865); assay: cell-based or functional assay
T1 sequence: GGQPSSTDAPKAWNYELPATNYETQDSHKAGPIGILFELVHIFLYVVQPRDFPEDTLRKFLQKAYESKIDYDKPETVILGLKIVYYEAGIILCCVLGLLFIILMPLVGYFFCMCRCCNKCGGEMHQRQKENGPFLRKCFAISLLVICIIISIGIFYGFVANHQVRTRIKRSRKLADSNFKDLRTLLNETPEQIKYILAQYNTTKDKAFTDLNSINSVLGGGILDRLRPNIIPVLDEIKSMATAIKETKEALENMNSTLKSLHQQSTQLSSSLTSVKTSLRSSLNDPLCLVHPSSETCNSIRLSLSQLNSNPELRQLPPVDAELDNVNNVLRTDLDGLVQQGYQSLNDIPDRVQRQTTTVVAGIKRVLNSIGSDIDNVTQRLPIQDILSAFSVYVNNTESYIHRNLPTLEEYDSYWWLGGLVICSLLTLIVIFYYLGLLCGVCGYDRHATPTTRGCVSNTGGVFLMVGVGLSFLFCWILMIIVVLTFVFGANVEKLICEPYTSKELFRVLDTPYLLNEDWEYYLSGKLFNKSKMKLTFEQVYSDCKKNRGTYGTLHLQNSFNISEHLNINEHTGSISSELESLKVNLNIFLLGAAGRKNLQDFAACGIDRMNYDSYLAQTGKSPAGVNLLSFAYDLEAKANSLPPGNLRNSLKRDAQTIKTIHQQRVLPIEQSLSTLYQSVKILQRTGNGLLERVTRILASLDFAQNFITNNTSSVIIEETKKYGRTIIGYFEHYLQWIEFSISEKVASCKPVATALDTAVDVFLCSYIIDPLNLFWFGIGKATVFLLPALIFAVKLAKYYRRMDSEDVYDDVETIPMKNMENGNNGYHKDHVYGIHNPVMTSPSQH

CD133 (Prominin-1) [2] = target: T1, CD133 (Prominin-1); assay: cell binding assay with and without anti-CD133 antibody (FIG. 17)
[3] = target: T2, AdML-5WT, control adenovirus with the native (wild type) Ad5 fiber (adenovirus type 5, UniProt P11818 1-581); assay: cell binding assay, 10 vp/cell, 2 h, 4 C, E4 qPCR (FIG. 26)
T2 construct: The whole virion stood in the assays; also called AdML-WT; wild type fiber virus
T2 sequence: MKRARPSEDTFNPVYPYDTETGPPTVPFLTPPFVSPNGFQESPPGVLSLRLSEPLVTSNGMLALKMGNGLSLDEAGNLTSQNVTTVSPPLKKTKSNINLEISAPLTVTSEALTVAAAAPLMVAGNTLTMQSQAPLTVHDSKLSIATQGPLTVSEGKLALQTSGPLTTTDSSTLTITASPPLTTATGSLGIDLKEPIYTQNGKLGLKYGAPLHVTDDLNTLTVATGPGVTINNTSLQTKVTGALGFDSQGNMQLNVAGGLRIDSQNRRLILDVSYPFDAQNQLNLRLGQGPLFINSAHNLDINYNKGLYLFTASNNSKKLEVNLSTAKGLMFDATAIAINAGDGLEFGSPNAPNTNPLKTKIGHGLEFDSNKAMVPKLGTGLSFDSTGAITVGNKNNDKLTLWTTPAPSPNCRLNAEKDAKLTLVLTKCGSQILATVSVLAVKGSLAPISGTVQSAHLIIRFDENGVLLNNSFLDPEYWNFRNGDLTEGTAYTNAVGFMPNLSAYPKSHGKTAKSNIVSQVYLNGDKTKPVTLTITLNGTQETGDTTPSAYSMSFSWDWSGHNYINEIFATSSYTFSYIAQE

Question: What does the source list for “AdML-VTIN, adenovirus with the VTINRSA (SEQ ID NO:12) targeting motif in the AB-loop of the fiber knob (from UniProt P11818 1-410; P11818 418-581)”?
Answer: fold binding against AdMG553 (mesothelin (MSLN)): 2 fold; fold binding against AdML-5WT (mesothelin (MSLN)): 5 fold

B1: AdML-TYML, adenovirus with the TYMLSRN (SEQ ID NO:106) targeting motif in the AB-loop of the fiber knob (other)
chain: MKRARPSEDTFNPVYPYDTETGPPTVPFLTPPFVSPNGFQESPPGVLSLRLSEPLVTSNGMLALKMGNGLSLDEAGNLTSQNVTTVSPPLKKTKSNINLEISAPLTVTSEALTVAAAAPLMVAGNTLTMQSQAPLTVHDSKLSIATQGPLTVSEGKLALQTSGPLTTTDSSTLTITASPPLTTATGSLGIDLKEPIYTQNGKLGLKYGAPLHVTDDLNTLTVATGPGVTINNTSLQTKVTGALGFDSQGNMQLNVAGGLRIDSQNRRLILDVSYPFDAQNQLNLRLGQGPLFINSAHNLDINYNKGLYLFTASNNSKKLEVNLSTAKGLMFDATAIAINAGDGLEFGSPNAPNTNPLKTKIGHGLEFDSNKAMVPKLGTGLSFDSTGAITVGNKNNDKLTLWTTPAPSPNTYMLSRNDAKLTLVLTKCGSQILATVSVLAVKGSLAPISGTVQSAHLIIRFDENGVLLNNSFLDPEYWNFRNGDLTEGTAYTNAVGFMPNLSAYPKSHGKTAKSNIVSQVYLNGDKTKPVTLTITLNGTQETGDTTPSAYSMSFSWDWSGHNYINEIFATSSYTFSYIAQE
notes: also called TYML virus; Ad-TYML
Question: What does the source list for B1?
Answer: viral copy number after infection (E4 qPCR) (CD133 (Prominin-1) [1]): > 5 fold; fold binding, CD133(+) against CD133(-) 293 cells (CD133 (Prominin-1) [2]): 4 fold

B2: Coxsackie adenovirus receptor (CAR) (receptor)
chain: LSITTPEEMIEKAKGETAYLPCKFTLSPEDQGPLDIEWLISPADNQKVDQVIILYSGDKIYDDYYPDLKGRVHFTSNDLKSGDASINVTNLQLSDIGTYQCKVKKAPGVANKKIHLVVLVKPSGARCYVDGSEEIGSDFKIKCEPKEGSLPLQYEWQKLSDSQKMPTSWLAEMTSSVISVKNASSEYSGTYSCTVRNRVGSDQCLLRLNVVPPSNKAGLIAGAIIGTLLALALIGLIIFCCRKKRREEKYEKEVHHDIREDVPPPKSRTSTARSYIGSNHSSLGSMSPSNMEGYSKTQYNQVPSEDFERTPQSPTLPPAKVAAPNLSRMGAIPVMIPAQSKDGSIV
notes: whole, on cells; the cell lines are human; also called Ad5 receptor; natural Ad receptor
Question: Does B2 bind [3]?
Answer: binds
